How the values were obtained:
[1] = molecular target: CusB N-terminal fragment residues 1-61, S(Met) (unlabelled) (Escherichia coli)
[2] = molecular target: CusB N-terminal fragment residues 1-61, S(Met) (unlabelled) (Escherichia coli); assay: rapid freeze quench X-ray absorption spectroscopy (RFQ-XAS, Se K edge); 23 °C; 1:2 mixture of apo-SeM-CusF with Cu(I)-loaded S(met)-CusB-NT, 50 mM HEPES pH 7.5, 5% ethylene glycol, liquid ethane quench, 15 ms to 30 s; Se-Cu peak height fitted (DYNAFIT) to rapid protein-protein association followed by intra-complex metal transfer; the complex shares one Cu(I) between ligands of both proteins

CusB N-terminal fragment residues 1-61, S(Met) (unlabelled) (Escherichia coli), sequence (P77239 29-89 limits assumed): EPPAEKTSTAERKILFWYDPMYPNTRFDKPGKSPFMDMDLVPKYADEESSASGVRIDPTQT

| fast phase of the quenching of the CusF W44 344 nm emission, stopped-flow fluorescence, 4 °C, apo-S(met)-CusF mixed with Cu(I)-S(Met)-CusB-NT [1] [s⁻¹] | slow phase of the quenching of the CusF W44 344 nm emission, stopped-flow fluorescence, 4 °C, apo-S(met)-CusF mixed with Cu(I)-S(Met)-CusB-NT [1] [s⁻¹] | kon [2] [M⁻¹ s⁻¹] | Substance |
| --- | --- | --- | --- |
| 165 | 0.012 |  | CusF(6-88) M8I M59I double mutant, S(Met) (unlabelled) (domain or fragment) |
|  |  | 1e+06 | selenomethionine-labelled CusF(6-88) M8I M59I double mutant (domain or fragment) |

Source: paper PMC6235853
